Source: patent publication US20040192609A1

Key:
[1] = molecular target: envelope glycoprotein of the R5-isolate ADA on pseudotyped HIV-1 (HIV-1); assay: cell-based or functional assay
[2] = molecular target: gp120 of the HIV-1 isolate ADA (HIV-1); assay: scFv precipitated with Protein L-Sepharose, radiolabeled ADA gp120 with and without soluble CD4, densitometry

| Substance | EC50 of neutralization of ADA virus [1] | enhancement of binding to gp120 by soluble CD4 [2] | also measured |
| --- | --- | --- | --- |
| CD4 binding site antibody F105 | 0.2 to 0.5 µg/mL |  |  |
| 47e scFv (wt) |  | > 2 fold |  |
| antibody 17b | > 2 µg/mL |  |  |
| antibody E51 | < 0.05 µg/mL |  |  |
| 17b scFv |  | > 2 fold |  |
| antibody 412d | 0.2 to 0.5 µg/mL |  |  |
| 412d scFv (wt) |  | > 2 fold |  |
| E51 scFv |  |  | increase of binding to gp120 in the presence of CD4 [2]: 40% |
